Laboratory results as given in paper PMC7373190, “Archaeal Chromatin Proteins Cren7 and Sul7d Compact DNA by Bending and Bridging” (mBio, 2020).

Molecular target: the molecule itself
Assay: cross-linking; 10 ug protein in 10 ul, 1 mM DSP, 30 min at 25°C, 20 mM HEPES-KOH pH 7.6, 50 mM KCl, without or with pUC18 DNA (protein/DNA mass ratios 1:1 and 1:5); non-reducing 15% SDS-PAGE, Coomassie

B1: Sis7d (natural protein)
chain: MTTVKFKYKGEEKQVDTSKIKKVWRVGKMISFTYDEGGGKTGRGAVSEKDAPKELLQMLEKQKK
stoichiometry N: 2
